Assay results published in the supplement of paper PMC10567573.
± gives the standard deviation.

Assay: protein stability index of a GFP-peptide fusion (GPS, HEK-293T) (PSI 1-6); higher = more stable
[1] = treatment: DMSO, c terminus: a fixed tail appended
[2] = treatment: MLN4924 1 uM, 8 h, c terminus: a fixed tail appended
[3] = treatment: DMSO, c terminus: native
[4] = treatment: MLN4924 1 uM, 8 h, c terminus: native
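Also: 24-mer peptide tiles fused after GFP, lentivirally expressed, FACS-sorted into six equal bins by GFP/DsRed ratio, decoded by Illumina sequencing, PSI is the read-weighted mean bin number.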

| Sequence | protein stability index [1] | protein stability index [2] | protein stability index [3] | protein stability index [4] |
| --- | --- | --- | --- | --- |
| SEKETMQFLNDRLASYLEKVRQLE [KRT33B] | 2.55 ± 0.12 | 2.66 ± 0.28 |  |  |
| SEYRSDIINAKSNDGWTPLHVAAH [ASB7] | 3.19 ± 0.38 | 3.27 ± 0.11 |  |  |
| SFPATLETQEQDVDLVQKYLEKYY [MMP1] | 3.82 ± 0.12 | 4.09 ± 0.2 |  |  |
| SFQPECSMKLTPLVLEVFGNEIS [VDR] |  |  | 2.23 ± 0.33 | 2.41 ± 0.14 |
| SGPEGNLNQIVTEPDANFPQFLHE [FAM104B] | 4.81 ± 0.15 | 4.93 ± 0.16 |  |  |
| SGRRNWCSYVVTRTISCHVQNGTY [EMID1] | 2.12 ± 0.41 | 1.93 ± 0.37 |  |  |
| SGTTLISVIVLDINDNAPTFQSSV [PCDHGC5] | 2.96 ± 0.28 | 2.64 ± 0.63 |  |  |
| SHRSNLIRHQRIHTGEKPYTCHEC [ZNF263] | 3.16 ± 0.26 | 3.49 ± 0.23 |  |  |
| SIFYDLPQGSGFCLGQLNLEQRSE [SMAD6] | 3.21 ± 0.21 | 3.45 ± 0.25 |  |  |
| SKLSLLLNDISRKSEGLSGRVLRK [TRIP13] | 2.82 ± 0.28 | 2.82 ± 0.31 |  |  |
| SKNEDRGEEEAESSISSTSNEQLK [ZMYND11] | 5.33 ± 0.63 | 5.49 ± 0.21 |  |  |
| SKNLIYRDVKPENFLIGRQGNKKE [CSNK1G1] | 4.26 ± 0.22 | 4.28 ± 0.18 |  |  |
| SKPKNSVWKRLKSPFRKKKDSVT [RIT1] |  |  | 3.55 ± 0.49 | 3 ± 0.43 |
| SKYVKLNVGGALYYTTMQTLTKQD [KCTD10] | 2.15 ± 0.25 | 2.44 ± 0.33 |  |  |
| SLFSLLIAAAVYIMDTVGNIWVCY [SLC19A2] | 2.94 ± 0.41 | 3.03 ± 0.72 |  |  |
| SLIEDLQRELEIPEQQVDMHDMLL [ZNF449] | 3.56 ± 0.35 | 3.51 ± 0.34 |  |  |
| SLKGSLSVEEQLSLISGCPNIQEA [CRYL1] | 4.18 ± 0.3 | 4.12 ± 0.36 |  |  |
| SLPRDRVLGFLIENFKGLAIPYLE [VPS39] | 3.24 ± 0.26 | 2.92 ± 0.49 |  |  |
| SLQTGNHSNGPTDLSMKGGASTTS [NOL4L] | 4.12 ± 0.25 | 4.31 ± 0.27 |  |  |
| SLSGVMLTDVSPEPLQALLERASA [PRAME] | 3.61 ± 0.4 | 3.51 ± 0.31 |  |  |
| SLYRDIRDIQDENQLLVADVKRLG [STX11] | 3.67 ± 0.33 | 3.58 ± 0.22 |  |  |
| SMEGVRWAFSCGTWLPSRAEWLLA [AASDHPPT] | 2.65 ± 0.57 | 2.79 ± 0.52 |  |  |
| SMEIYGSAVADKLDNSRSILKRRY [CTDNEP1] | 3.28 ± 0.22 | 3.71 ± 0.41 |  |  |

| Sequence | protein stability index [1] | protein stability index [2] | protein stability index [3] | protein stability index [4] |
| --- | --- | --- | --- | --- |
| SNANYSVKKCIFLLFINHRLVEST [MLH1] | 3.35 ± 0.46 | 3.25 ± 1.2 |  |  |
| SNVRGSLNVNLNSVVLRRARGGAV [DUSP5] | 3.74 ± 0.24 | 4.1 ± 0.29 |  |  |
| SPFAQELLDDGQQASPYHPGSCGA [ELF3] | 4.83 ± 0.31 | 5.04 ± 0.16 |  |  |
| SPGELEEDLLLPGACPGADEAGGG [WEE1] | 5.42 ± 0.24 | 5.5 ± 0.12 |  |  |
| SPLHLVQMPPVIVETARSHQRSSS [PI4K2A] | 4.22 ± 0.18 | 4.24 ± 0.2 |  |  |
| SPPVMVAGGRVFVLPCIQQIQRIS [FLOT1] | 2.15 ± 0.5 | 1.96 ± 0.27 |  |  |
| SPVNMVTVAMVAGQCEFAHILHS [ZNF649] |  |  | 2.08 ± 0.19 | 1.87 ± 0.25 |
| SQILQNKKHKNSQLDKNSEVYQEV [FAM98B] | 4.46 ± 0.42 | 4.81 ± 0.067 |  |  |
| SQLSMKAGLENTVAETECRYALQL [KRT13] | 3.37 ± 0.2 | 3.35 ± 0.25 |  |  |
| SQPGNAVIDKETIDLLAFTSVAEL [SDE2] | 3.43 ± 0.3 | 3.46 ± 0.32 |  |  |
| SQSETSSAVSTPSPVTRTRSLSAC [DLC1] | 4.89 ± 0.23 | 4.87 ± 0.14 |  |  |
| SQYQCENGVSGPSQDLLPPPNPYP [TBX5] | 4.75 ± 0.16 | 4.64 ± 0.14 |  |  |
| SRAANQEQRANDLEQIMESVKSKI [CEP70] | 4.44 ± 0.22 | 4.49 ± 0.14 |  |  |
| SRAILQRVQAAAFGPGQTLLSSVH [ALKBH7] | 2.72 ± 0.14 | 2.65 ± 0.35 |  |  |
| SRLLGAAAGQRSRPSTYYELLGVH [DNAJC4] | 2.54 ± 0.57 | 2.52 ± 0.42 |  |  |
| SRMKFRGNGALSNISDLPFLAENS [LCOR] | 3.32 ± 0.31 | 3.47 ± 0.27 |  |  |
| SRSENVLSRLSLMAMPNGFHEDGP [PSD2] | 3.73 ± 0.17 | 3.87 ± 0.27 |  |  |
| SRSNSRSRSYSPRRSRGSPRYSPR [SRSF1] | 5.28 ± 0.26 | 5.56 ± 0.065 |  |  |
| SRSPSVEGSLWAVGTESQGRDWRH [PXN] | 4.04 ± 0.11 | 4.05 ± 0.23 |  |  |
| SRSTLECAYRTHLVAGIGFYQHLL [SMG5] | 2.9 ± 0.35 | 2.83 ± 0.57 |  |  |
| SRSYSPRRSRGSPRYSPRHSRSRS [SRSF1] | 5.39 ± 0.24 | 5.5 ± 0.25 |  |  |
| SRVLLSAIEGIPGSDYVNANYIDG [PTPRD] | 3.28 ± 0.26 | 3.73 ± 0.24 |  |  |
| SSCHFARDSSFLISGGFDRTVAIW [WDR88] | 2.42 ± 0.45 | 2.51 ± 0.55 |  |  |

| Sequence | protein stability index [1] | protein stability index [2] | protein stability index [3] | protein stability index [4] |
| --- | --- | --- | --- | --- |
| SSCIPKAFGNPKFALQGLPLNCAP [IRX6] | 2.46 ± 0.25 | 2.75 ± 0.18 |  |  |
| SSGSFCYCHPDSETDEDEEEGDEQ [GMCL1] | 5.52 ± 0.17 | 5.39 ± 0.14 |  |  |
| SSIVWRFVEDSFDPNINPTIGASF [RAB22A] | 2.31 ± 0.57 | 1.71 ± 0.47 |  |  |
| SSQGVATPAITVSNSCPAELPNIK [TFE3] | 5 ± 0.11 | 4.96 ± 0.24 |  |  |
| SSSVETGPSVSEPPGLPRVSAYVD [SPATS1] | 4.77 ± 0.35 | 4.72 ± 0.21 |  |  |
| SSTQLCVLNDRFQRQKYLSLQQMQ [NANOGP8] | 2.65 ± 0.14 | 2.83 ± 0.1 |  |  |
| SSVECYNLETNEWRYVSSLPQPLA [KLHL14] | 2.6 ± 0.19 | 2.92 ± 0.24 |  |  |
| STHELEKKELEENFEKLRLSLQDQ [MTUS2] | 5.43 ± 0.14 | 5.33 ± 0.12 |  |  |
| STIGFKLPNHRAAKRLWKVCVEHH [EPB41L3] | 2.26 ± 0.27 | 2.58 ± 0.45 |  |  |
| STNGEKTKSPCESNNKKNDEMQEV [SPANXN3] | 5.53 ± 0.16 | 5.41 ± 0.19 |  |  |
| STVKTETISFGSVSPGGVKLEIST [EPB41L3] | 3.19 ± 0.58 | 3.06 ± 0.42 |  |  |
| STWSDPSVNISLDNLLPGMQPSKP [CLINT1] | 4.3 ± 0.12 | 4.25 ± 0.099 |  |  |
| STYRKRTPVMEGYVEVKEGKTWKQ [LOXL2] |  | 3.92 ± 0.2 |  |  |
| STYRPLPDPSVWSRRYTEMALPFF [MYORG] | 2.36 ± 0.4 | 2.22 ± 0.13 |  |  |
| SVEYGYRPGATAVPTPLTNVQILL [FCHO1] | 2.06 ± 0.62 | 2.03 ± 0.48 |  |  |
| SVKSKIGELEDESLNRACHQQNKI [CEP70] | 4.63 ± 0.41 | 4.7 ± 0.25 |  |  |
| SVPIDLQKVDQFDPFTVPTISFIC [PRIM1] | 2.55 ± 0.44 | 2.48 ± 0.74 |  |  |
| SVVNVGCGPAEERVLLTGLHAVAD [YPEL3] | 3 ± 0.78 | 3.29 ± 0.7 |  |  |
| SVWQHIDCMGIDRQHIPDTYLCER [KMT2E] | 2.83 ± 0.2 | 2.81 ± 0.4 |  |  |
| SWPRASPASGASSIKPEASQMPPP [SCNN1D] | 4.62 ± 0.27 | 4.63 ± 0.38 |  |  |
| SWRWIMLILFAWGTLLFYIGGHLV [FUT8] | 2.42 ± 0.14 | 2.27 ± 0.47 |  |  |
| SYVRSRKRLREEEAARLFKQIVSA [TRIB1] | 2.53 ± 0.38 | 3.09 ± 0.27 |  |  |
| TAENERLQKKVEQLSRELSTLRNL [CEBPB] | 3.69 ± 0.2 | 3.95 ± 0.2 |  |  |

| Sequence | protein stability index [1] | protein stability index [2] | protein stability index [3] | protein stability index [4] |
| --- | --- | --- | --- | --- |
| TAGKVLAHFYGVKLEGKVPMHKLF [ESRRA] | 2.41 ± 0.39 | 2.44 ± 0.79 |  |  |
| TAGQERFRALAPMYYRGSAAAIIV [RAB22A] | 2.26 ± 0.091 | 2.25 ± 0.26 |  |  |
| TALTSFCAKYTYPVCSALLDPVLQ [FANCE] | 2.31 ± 0.37 | 2.23 ± 0.35 |  |  |
| TARRLLSQVRALDRFQVPTTEVNA [NFE2L1] | 3.02 ± 0.07 |  |  |  |
| TCIDMDWKVLTWLRYTLWIPLYPL [HACD3] | 3.08 ± 0.28 | 3.29 ± 0.5 |  |  |
| TCLPLGVLMKGQHLHLETFKAVLD [PRAME] | 2.36 ± 0.25 | 2.32 ± 0.32 |  |  |
| TDLPECEQSSARQKASLLIQQALT [TCF25] | 3.47 ± 0.36 | 3.66 ± 0.36 |  |  |
| TEDVGVVCSDKRIPGFKFDNSLIN [LOXL2] | 3.76 ± 0.28 | 3.75 ± 0.3 |  |  |
| TEELIVQTKQVYDAVGMLGIEEVT [NLN] | 4.23 ± 0.17 | 4.1 ± 0.45 |  |  |
| TEEQTRQERQGPAKPEVLSIQWPG [NECAB1] | 5.07 ± 0.058 | 5.14 ± 0.15 |  |  |
| TEIEEELKSLDKEISEAFTSTGFD [BCL2L13] | 5.16 ± 0.27 | 5.26 ± 0.34 |  |  |
| TEPLTHWYQVRCLFQSPLFAKAGD [CARM1] | 2.11 ± 0.36 | 2.15 ± 0.61 |  |  |
| TEPPVALAPGPAPTRCLPGHKEEE [ESRRA] | 5.28 ± 0.12 | 5.36 ± 0.34 |  |  |
| TFASLIGPFGGFFASGFKRAFKIK [CDS1] | 2.66 ± 0.73 | 1.85 ± 0.26 |  |  |
| TGEDSAFQEPDSPLPPARSPTEPG [WEE1] | 5.62 ± 0.15 | 5.44 ± 0.34 |  |  |
| TGGLGGERERQPCGDGNTETHRAP [SOAT2] | 5.37 ± 0.15 | 5.31 ± 0.19 |  |  |
| TGKGPSTHTQIDQQPPRLLIVHIA [M1AP] | 2.54 ± 0.34 | 2.44 ± 0.6 |  |  |
| TIRLRPRQVLCEKCKSTLSPPEAS [PWWP2B] | 3.23 ± 0.3 | 3.75 ± 0.6 |  |  |
| TITLNCPRNSDMKNQGEENGFPDS [EDARADD] | 4.11 ± 0.51 | 4.23 ± 0.19 |  |  |
| TLALLLNFLACLASFCVETNNGAG [SCAMP3] | 3.06 ± 0.2 | 2.88 ± 0.89 |  |  |
